# Reference: PMC3950950, “Fluorescent sensors for activity and regulation of the nitrate transceptor CHL1/NRT1.1 and oligopeptide transporters” (eLife, 2014)
# Substrate: O=[N+]([O-])O
# Experiment: fluorescence response (donor quenching) of sensor in yeast, plate reader
# Type: cell-based, Arabidopsis thaliana
# Details: 50 mM MES pH 5.5, monophasic low-affinity response, excitation 428 nm
protein,measurement,value
"NiTrac1 (CHL1/NRT1.1/NPF6.3 fusion) (Arabidopsis thaliana; T101A) (protein, full-length ORF between N-terminal Aphrodite t9 (yellow FP) and C-terminal mCerulean (pDRFlip30); expressed in yeast BJ5465; intact cells) MSLPETKSDDILLDAWDFQGRPADRSKTGGWASAAMILCIEAVERLTTLGIGVNLVTYLTGTMHLGNATAANTVTNFLGTSFMLCLLGGFIADTFLGRYLAIAIFAAIQATGVSILTLSTIIPGLRPPRCNPTTSSHCEQASGIQLTVLYLALYLTALGTGGVKASVSGFGSDQFDETEPKERSKMTYFFNRFFFCINVGSLLAVTVLVYVQDDVGRKWGYGICAFAIVLALSVFLAGTNRYRFKKLIGSPMTQVAAVIVAAWRNRKLELPADPSYLYDVDDIIAAEGSMKGKQKLPHTEQFRSLDKAAIRDQEAGVTSNVFNKWTLSTLTDVEEVKQIVRMLPIWATCILFWTVHAQLTTLSVAQSETLDRSIGSFEIPPASMAVFYVGGLLLTTAVYDRVAIRLCKKLFNYPHGLRPLQRIGLGLFFGSMAMAVAALVELKRLRTAHAHGPTVKTLPLGFYLLIPQYLIVGIGEALIYTGQLDFFLRECPKGMKGMSTGLLLSTLALGFFFSSVLVTIVEKFTGKAHPWIADDLNKGRLYNFYWLVAVLVALNFLIFLVFSKWYVYKEKRLAEVGIELDDEPSIPMGH",Km,3.5 ± 3.7 mM
